“Also recorded” adds a separate entry of the source.
Legend:
Assay type in all cases: cell-based, human
[1] = tested on: ERE-tk-Luciferase reporter in HepG2 cells; experiment: Transactivation of ERE-tk-Luciferase reporter by estrogen receptor variants, transient transfection; parameters: dose or concentration left out as unconfirmed; conditions: HepG2 cells transfected with receptor expression plasmid; stimulation with E2 (17b-estradiol) vs ethanol vehicle, 24 hrs; normalized to β-galactosidase
Description: (§1) The estrogen response element (ERE) containing reporter, ERα, and ERβ expression plasmids have been described previously (Bodine, et al J Cell Biochem 1997; 65: 368-387 and Bhat et al. J Steroid Biochem Mol Biol 1998; 67(3):233-40). The ERβcx2 expression plasmid was constructed by cloning a BstXI/Xbal fragment of the original ERβcx2 clone (ef1-3/pCR 2.1) into the ERβ expression plasmid digested with the same restriction enzymes. The sequence of the clone was confirmed by sequence analysis. An SV40-β gal plasmid (Promega, Madison, Wis.) was used to normalize transfections.
(§2) Cells were transfected with lipofectamine 2000 and incubated in the presence or absence of estrogen for 24 hrs. Luciferase expression was monitored in the cell lysates. Transient transfections were performed in HepG2 cells maintained in DMEM supplemented with 10% fetal bovine serum. Twenty-four hours prior to transfection, cells are seeded in phenol red-free (PRF) DMEM containing 10% charcoal-stripped serum (csFBS), into collagen-coated 6 well plates (Biocoat, Becton Dickenson). […] 24 hrs later, […] luciferase activity was quantitated in an automated ML 1000 Luminometer (Dynex Technologies, Chantilly, Va.,). β-galactosidase activity was measured in cell lysates to normalize for differences in transfection efficiency. […]

ERα signaling pathway = experiment: Cotransfection of ERE-tk reporter with ERα and increasing amounts of ERβcx2 expression plasmid (dominant negative activity); conditions: ERE-tk reporter cotransfected with ERα; E2 ligand activation; luciferase measured in 48 hrs; FIG. 9
Description: as §1
as §2, with “serum.” for “serum. Twenty-four hours prior to transfection, cells are seeded in phenol red-free (PRF) DMEM containing 10% charcoal-stripped serum (csFBS), into collagen-coated 6 well plates (Biocoat, Becton Dickenson).”
(§3) In these experiments, the ERE-tk reporter was cotransfected with either ERα or ERβ and increasing amounts of the ERβcx2 expression plasmid. Luciferase acitivity was measured in 48 hrs. […]

ERβ signaling pathway = experiment: Cotransfection of ERE-tk reporter with ERβ and increasing amounts of ERβcx2 expression plasmid (dominant negative activity); conditions: ERE-tk reporter cotransfected with ERβ; E2 ligand activation; luciferase measured in 48 hrs; FIG. 10
Description: as §1
as §2, with “serum.” for “serum. Twenty-four hours prior to transfection, cells are seeded in phenol red-free (PRF) DMEM containing 10% charcoal-stripped serum (csFBS), into collagen-coated 6 well plates (Biocoat, Becton Dickenson).”
as §3

| luciferase activity of E2-activated ERα with increasing amounts of the ERβcx2 expression construct (ERα signaling pathway) | signaling through E2-activated ERβ (luciferase) with increasing amounts of the ERβcx2 expression construct (ERβ signaling pathway) | Molecule | ligand-activated transcription of the ERE-reporter (luciferase activity), induction [1] |
| --- | --- | --- | --- |
| diminished | reduced | ERβcx2: novel human estrogen receptor beta variant; C-terminal 61 amino acids of wild-type ERβ replaced by unique 7 amino acids; tested as expression plasmid (protein, not fully specified; X: residue not identified in the source, novel human estrogen receptor beta variant; C-terminal 61 amino acids of wild-type ERβ replaced by unique 7 amino acids; tested as expression plasmid) KVFSQLLSQDMNIKNSPSSLNSPSSYNCSQSILPLEHGSIYIPSSYVDSHHEYPAMTFYSPAVMNYSIPSNVTNLEGGPGRQTTSPNVLWPTPGHLSPLVVHRQLSHLYAEPQKSPWCEARSLEHTLPVNRETLKRKVSGNRCASPVTGPGSKRDAHFCAVCSDYASGYHYGVWSCEGCKAFFKRSIQGHNDYICPATNQCTIDKNRRKSCQACRLRKCYEVGMVKCGSRRERCGYRLVRRQRSADEQLHCAGKAKRSGGHAPRVRELLLDALSPEQLVLTLLEAEPPHVLISRPSAPFTEASMMMSLTKLADKELVHMISWAKKIPGFVELSLFDQVRLLESCWMEVLMMGLMWRSIDHPGKLIFAPDLVLDRDEGKCVEGILEIFDMLLATTSRFRELKLQHKEYLCVKAMILLNSSMYPLVTATQDADSSRKLAHLLNAVTDALVWVIAKSGISSQQQSMRLANLLMLLSHVRHARLYIWALKMFAALKQILRPAFPSSRECFPYCVPLMSMALSQRVHDINKVFHYFGFXKKKKKKKXXXXKKGRPLRIPR | unable to induce transcription; also recorded: unchanged |
|  |  | ERβ: wild-type estrogen receptor beta, expressed from expression plasmid (protein, UniProt Q92731 1-530, looked up) Estrogen receptor beta: MDIKNSPSSLNSPSSYNCSQSILPLEHGSIYIPSSYVDSHHEYPAMTFYSPAVMNYSIPSNVTNLEGGPGRQTTSPNVLWPTPGHLSPLVVHRQLSHLYAEPQKSPWCEARSLEHTLPVNRETLKRKVSGNRCASPVTGPGSKRDAHFCAVCSDYASGYHYGVWSCEGCKAFFKRSIQGHNDYICPATNQCTIDKNRRKSCQACRLRKCYEVGMVKCGSRRERCGYRLVRRQRSADEQLHCAGKAKRSGGHAPRVRELLLDALSPEQLVLTLLEAEPPHVLISRPSAPFTEASMMMSLTKLADKELVHMISWAKKIPGFVELSLFDQVRLLESCWMEVLMMGLMWRSIDHPGKLIFAPDLVLDRDEGKCVEGILEIFDMLLATTSRFRELKLQHKEYLCVKAMILLNSSMYPLVTATQDADSSRKLAHLLNAVTDALVWVIAKSGISSQQQSMRLANLLMLLSHVRHASNKGMEHLLNMKCKNVVPVYDLLLEMLNAHVLRGCKSSITGSECSPAEDSKSKEGSQNPQSQ | 8.0 fold |

Source: patent US7301014B2, “Nucleic acid molecule encoding a novel estrogen receptor beta variant” (Wyeth, priority 2002, dated 2007)
